How the values were obtained:
ERK1/2 phosphorylation = ERK1/2 phosphorylation in aFGF-stimulated UTMC2 cells (flow cytometry); assay type: cell-based, human
Text: FIG. 3 is a flow cytometry chart showing phosphorylation of ERK (Extracellular signal-regulated protein kinase) in UTMC2 cells. The filled histogram represents UTMC2 without FGF stimulation (unstimulated); the light line represents cells stimulated with FGF and treated with a control antibody (FGF/vehicle); the dark line represents cells stimulated with FGF and treated with PRO-001 (FGF/PRO-001).
Determination of ERK1/2 phosphorylation by flow cytometry has been described previously (Chow S, et al., Cytometry 2001; 46:72-78). Cells were serum-starved overnight and then stimulated with 30 ng/ml of aFGF and 10 μg/ml heparin for 10 minutes at 37° C. The cells were immediately fixed by adding 10% formaldehyde directly into the culture medium to obtain a final concentration of 2%. Cells were incubated in fixative for 10 min at 37° C. then on ice for an additional 2 minutes. The cells were permeabilized by adding ice-cold methanol (to a final concentration of 90%) while vortexing and incubated on ice for 30 minutes. […] Flow cytometry was performed on a FACSCaliber® flow cytometer (BD Biosciences, San Jose, Calif.) and analyzed using Cellquest® software (Becton Dickinson).

FGFR3-F384L = target: T1, FGFR3-F384L (Homo sapiens, UniProt P22607, F384L); assay: FGF-stimulated growth of B9 cells expressing FGFR3 mutant F384L; assay type: cell-based
T1 construct: expressed in transfected cells; host or cells: B9 cells
T1 sequence (P22607 23-806 F384L): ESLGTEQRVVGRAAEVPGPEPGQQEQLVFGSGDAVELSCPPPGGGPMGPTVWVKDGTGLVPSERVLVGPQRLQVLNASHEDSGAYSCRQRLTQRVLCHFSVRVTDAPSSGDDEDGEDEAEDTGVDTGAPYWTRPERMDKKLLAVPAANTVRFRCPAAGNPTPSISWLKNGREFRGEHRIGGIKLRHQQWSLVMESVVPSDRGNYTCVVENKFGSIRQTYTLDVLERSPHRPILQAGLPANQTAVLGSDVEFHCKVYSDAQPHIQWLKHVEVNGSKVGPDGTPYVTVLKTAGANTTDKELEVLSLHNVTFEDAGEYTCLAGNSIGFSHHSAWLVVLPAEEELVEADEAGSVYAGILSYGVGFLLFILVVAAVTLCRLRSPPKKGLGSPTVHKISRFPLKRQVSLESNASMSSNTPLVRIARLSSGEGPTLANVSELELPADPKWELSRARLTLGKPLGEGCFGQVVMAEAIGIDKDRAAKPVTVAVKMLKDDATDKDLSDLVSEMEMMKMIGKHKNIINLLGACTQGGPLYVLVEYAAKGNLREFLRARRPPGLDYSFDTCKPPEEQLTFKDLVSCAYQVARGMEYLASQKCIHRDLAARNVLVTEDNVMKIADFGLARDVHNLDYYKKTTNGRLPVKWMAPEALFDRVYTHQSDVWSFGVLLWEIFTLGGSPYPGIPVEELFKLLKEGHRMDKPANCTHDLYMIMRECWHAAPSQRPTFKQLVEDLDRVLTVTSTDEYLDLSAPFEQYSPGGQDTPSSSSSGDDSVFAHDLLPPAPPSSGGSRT
Experimental: (§1) Non-transformed rat chondrocyte cell line expressing PGFR3 in an inducible manner (RCJ-FGFR3) has been described previously (Rauchenberger R. et al. J. Biol. Chem. 2003; 278:38194-205). Cells were maintained in α-Minimum Essential Media supplemented with 15% fetal calf serum (FCS), 2 mM L-Glutamine, 100 U/ml penicillin, 100 μg/ml streptomycin, 600 μg/ml G418 (Gibco BRL, Ontario, Canada), 2 μg/ml Tetracyclin (Sigma, Ontario, Canada), and 50 μg/ml HygromycinB (Gibco BRL). FGFR3 expression was induced by removal of tetracyclin and serum starvation. […]
(§2) Cell viability was assessed by 3-(4,5-dimethylthiazol)-2,5-diphenyl tetrazolium (MTT) or (2,3-bis(2-methoxy-4-nitro-5-sulphophenyl)-5-[(phenylamino) carbonyl]-2H-tetrazolium hydroxide (XTT) dye absorbance where indicated. Cells were seeded in 96-well plates at a density of 20,000 (FDCP-1 cells), 5,000 (B9 cells) or 25,000 cells (MM cell lines) per well in culture medium. Cells were incubated in the absence or presence of one of the following cytokines: 10 ng/ml FGF9 and 5 μg/ml heparin, 1% murine IL-6, 50 ng/ml IGF-1 or 50 ng/ml human IL-6 where indicated and increasing concentrations of PRO-001, control antibody (purified human Fab) or 100 nM PD173074. […]

FGFR3 = FGFR3 (Homo sapiens, UniProt P22607); assay: FGFR3 domain specificity of binding
Chain of FGFR3 (P22607 23-806): as the sequence (P22607 23-806 F384L) above, with L362F counted along it

FGFR3^S249C = target: T2, FGFR3^S249C (Homo sapiens, UniProt P22607, S249C); assay: FGF-independent proliferation of FDCP-FGFR3^S249C cells in vitro (XTT); assay type: cell-based; conditions: two days
T2 construct: was transfected with full length FGFR1 (FDCP-FGFR1), FGFR2 (FDCP-FGFR2), FGFR3 (FDCP-FGFR3) or FGFR3^S249C mutant cDNAs; expressed in transfected cells; host or cells: FDCP-1 mouse myeloid progenitor cell line
T2 sequence (P22607 23-806 S249C): as the sequence (P22607 23-806 F384L) above, with S227C, L362F counted along it
Experimental: FIG. 8A is a graph showing viability of FDCP-FGFR3^S249C. Cells were cultured in the presence of increasing amounts of PRO-001 or a control antibody (C) for two days. Cell proliferation was determined by XTT analysis. Data are the average of duplicate cultures.
as §1, with “BRL).” for “BRL). FGFR3 expression was induced by removal of tetracyclin and serum starvation.”
as §2

FGFR3-G394D = target: T3, FGFR3-G394D (Homo sapiens, UniProt P22607, G382D); assay: FGF-stimulated growth of B9 cells expressing G394D-FGFR3; assay type: cell-based
T3 construct: expressed in transfected cells; host or cells: B9 cells
T3 sequence (P22607 23-806 G382D): as the sequence (P22607 23-806 F384L) above, with G360D, L362F counted along it
Experimental: as §1, §2

B1: PRO-001: human anti-FGFR3 Fab from HuCAL library; VH-CDR3 SEQ ID NO:1, VL-CDR3 SEQ ID NO:10; VH SEQ ID NO:19, VL SEQ ID NO:28 (antibody, V domains shown)
VH: QVQLQQSGPGLVKPSQTLSLTCAISGDSVSSNSAAWNWIRQSPGRGLEWLGRTYYRSKWYNDYAVSVKSRITINPDTSKNQFSLQLNSVTPEDTAVYYCARSYYPDFDYWGQGTLVTVSS
VL: DIELTQPPSVSVAPGQTARISCSGDALGDKYASWYQQKPGQAPVLVIYDDSDRPSGIPERFSGSNSGNTATLTISGTQAEDEADYYCQSYDGPDLWVFGGGTKLTVLGQ
- Levels of phosphorylated ERK in aFGF-stimulated UTMC2 cells (ERK1/2 phosphorylation): return to those of unstimulated cells
- IC50, FGF-stimulated growth of B9 cells expressing FGFR3 mutant F384L (FGFR3-F384L): approximately 3 μg/ml
- FGFR3 Domain Specificity (FGFR3): 2
- FGF-independent proliferation of FDCP-FGFR3^S249C in vitro (FGFR3^S249C): efficiently blocked
- IC50, FGF-stimulated growth of cells expressing G394D-FGFR3 (FGFR3-G394D): approximately 3 μg/ml
